Experimental data published in article PMC6021012.
pKd: −log10 of the molar value.

Assays:
[1] = molecular target: phosphorylated CheY K91C, methylene blue at position 91 (E. coli) (UniProt P0AE67); assay: electrochemical sensor
[2] = molecular target: CheY K91C, methylene blue at position 91 (E. coli) (UniProt P0AE67); assay: electrochemical sensor

- pKd [1]: 4.80
- pKd [2]: 3.67
Substance: 16-residue target region of the flagellar switch protein FliM (peptide)
